We go through one molecule from patent publication US20110045554A1 (University of California, published 2011).

Series [1] has as its target citrate synthase. Put plainly: cell-based or functional assay.
Series [2] concerns the molecule itself. Nature of the series: transmission electron microscopy; self-association into filaments.

B1: Methanococcus jannaschii gamma-Prefoldin (γ-PFD) (other)
chain: MVNEVIDINEAVRAYIAQIEGLRAEIGRLDATIATLRQSLATLKSLKTLGEGKTVLVPVGSIAQVEMKVEKMDKVVVSVGQNISAELEYEEALKYIEDEIKKLLTFRLVLEQAIAELYAKIEDLIAEAQQTSEEEKAEEEENEEKAE
notes: Recombinant protein expressed in E. coli from the genomic M. jannaschii gene; It forms long filaments of identical subunits; also called γ prefoldin; Mj-γ-PFD
With B1, in series [1], the “reduction of citrate synthase aggregation at 45° C.” value is 2 :1 monomer-to-monomer stoichiometric ratio and the “stabilization of citrate synthase against aggregation at 45° C.” value is 5 :1 monomer-to-monomer stoichiometric ratio. The binding result in series [2] is “binds”.
